Experimental data as given in patent US20040014178A1 (published 2004).

Tests used:
[1] = biological target: T1, human recombinant von Willebrand factor (human, UniProt P04275 764-2813); test: blot of vWb on nitrocellulose probed with 125I-labelled vWF
T1 construct: also called rvWf; rvWF

[2] = biological target: T1, human recombinant von Willebrand factor; test: phagemid clone isolated by panning the S. lugdunensis library against vWF

Binder | binding result [1] | binding result [2]
vWb (von Willebrand factor binding protein) from S. aureus, wild type secreted protein (other, Purified from the culture supernatant of S. aureus Newman with the Eap gene deleted; also called wild type vWb; purified secreted vWb protein) VVSGEKNPYVSESLKLTNNKNKSRTVEEYKKSLDDLIWSFPNLDNERFDNPEYKEAMKKYQQRFMAEDEALKKFFSEEKKIKNGNTDNLDYLGLSHERYESVFNTLKKQSEEFLKEIEDIKKDNPELKDFNEEEQLKCDLELNKLENQILMLGKTFYQNYRDDVESLYSKLDLIMGYKDEERANKKAVNKRMLENKKEDLETIIDEFFSDIDKTRPNNIPVLEDEKQEEKNHKNMAQLKSDTEAAKSDESKRSKRSKRSLNTQNHKPASQEVSEQQKAEYDKRAEERKARFLDNQKIKKTPVVSLEYDFEHKQRIDNENDKKLVVSAPTKKPTSPTTYTETTTQVPMPTVERQTQQQIIYNAPKQLAGLNGESHDFTTTHQSPTTSNHTHNNVVEFEETSALPGRKSGSLVGISQIDSSHLTEREKRVIKREHVREAQKLVDNYKDTHSYKDRINAQQKVNTLSEGHQKRFNKQINKVYNGK | binds | 
phagemid clone SlvW2 (vWbl fragment displayed on phagemid particles) (other) GNEVQETEEGTHDAPGIIGDKWQYTGQTTTEDGITTHIYQRIQSEIPNEAPQETPVALEVTRYVDSEGN |  | binds
